Data taken from IntAct's records for PubMed 19416828.

B1: Splicing factor rtf2 (Schizosaccharomyces pombe (strain ATCC 38366 / 972)), Q10154 (parent)
chain: MGNDGGSLPTRNELVKEPGKVPPLDIDFKRSVKSSQFSQCAITDEPLYPPIVSCGLGKLYNKASILQMLLDRSSVPKSPSHIKSLKDVVQLQVELDDSGKVLWLCPITRHVMSDTYQFAYIVPCGHVFEYSALKQFGEKMCFQCNQVYEEKDVIPINPNAEQLKTLSKRLLDLALSEKTHSLNKASKKSNKNGDKKRKHVSKSNSKHAKHELRTNRMLDGENVKSETSVTDMERVKRVKI
partner: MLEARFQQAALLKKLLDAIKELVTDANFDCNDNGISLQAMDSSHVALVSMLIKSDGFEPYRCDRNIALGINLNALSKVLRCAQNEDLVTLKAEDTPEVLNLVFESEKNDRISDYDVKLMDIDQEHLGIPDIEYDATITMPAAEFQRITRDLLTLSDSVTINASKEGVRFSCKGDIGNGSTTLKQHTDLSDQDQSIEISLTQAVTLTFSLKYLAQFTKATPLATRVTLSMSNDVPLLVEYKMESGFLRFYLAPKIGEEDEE

Variants of: B1
Details: with pcna_schpo pcn1, Q03392

effect of a mutation on the interaction | Variant
disrupting interaction | MGNDGGSLPTRNELVKEPGKVPPLDIDFKRSVKSSQFSQCAITDEPLYPPIVSCGLGKLYNKASILQMLLDRSSVPKSPSHIKSLKDVVQLQVELDDSGKVLWLCPITRHVMSDTYQFAYIVPCGHVFEYSALKQFGEKMGFQCNQVYEEKDVIPINPNAEQLKTLSKRLLDLALSEKTHSLNKASKKSNKNGDKKRKHVSKSNSKHAKHELRTNRMLDGENVKSETSVTDMERVKRVKI [C141G]
